Changes are numbered by the printed parent chain. Names may count otherwise.

The labels stand for the following.
T1: EsCas13d, nuclease-dead (Eubacterium siraeum, UniProt B0MS50, R295A;H300A;R849A;H854A)
T1 sequence: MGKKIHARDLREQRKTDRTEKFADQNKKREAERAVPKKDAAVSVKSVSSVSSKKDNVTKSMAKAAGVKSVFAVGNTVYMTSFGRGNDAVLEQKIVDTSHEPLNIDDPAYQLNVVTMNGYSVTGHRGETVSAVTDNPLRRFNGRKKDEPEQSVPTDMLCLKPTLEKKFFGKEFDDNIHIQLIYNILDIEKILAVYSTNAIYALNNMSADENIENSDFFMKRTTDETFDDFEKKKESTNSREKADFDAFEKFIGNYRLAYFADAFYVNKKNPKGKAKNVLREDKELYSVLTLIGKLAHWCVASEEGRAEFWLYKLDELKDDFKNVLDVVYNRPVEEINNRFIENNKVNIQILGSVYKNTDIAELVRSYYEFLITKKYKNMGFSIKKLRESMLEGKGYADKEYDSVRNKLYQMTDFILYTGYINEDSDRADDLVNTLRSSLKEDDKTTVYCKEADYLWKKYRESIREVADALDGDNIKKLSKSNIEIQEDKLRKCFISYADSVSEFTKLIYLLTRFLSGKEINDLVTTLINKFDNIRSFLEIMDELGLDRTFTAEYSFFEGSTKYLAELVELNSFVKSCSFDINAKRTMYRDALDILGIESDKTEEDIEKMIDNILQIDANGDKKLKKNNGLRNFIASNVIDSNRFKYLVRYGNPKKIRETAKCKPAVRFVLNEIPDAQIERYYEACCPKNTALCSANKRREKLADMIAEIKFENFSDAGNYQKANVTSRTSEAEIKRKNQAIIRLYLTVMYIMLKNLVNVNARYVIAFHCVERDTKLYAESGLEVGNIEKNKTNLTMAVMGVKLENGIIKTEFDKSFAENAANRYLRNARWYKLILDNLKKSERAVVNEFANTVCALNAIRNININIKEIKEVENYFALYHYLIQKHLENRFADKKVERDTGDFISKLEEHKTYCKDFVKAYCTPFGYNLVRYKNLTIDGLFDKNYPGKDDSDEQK

B1: target 1 insC 3' of 13,insG 3' of 6 (mixed)
RNA 1: CACCCGUGCAAAAAUGCAGGGGUCUAAAACUGAGCGGAUAACCUCUCUAUGG
RNA 2: GGGAAUGGAUCCACAUCUACGAAUUCGUACCAUAGAGAGCGUUAUCCGGCUCACCGAGAUCGGAAGAGCACACGU
B2: target 1 del1,del5 (mixed)
RNA 1: B1 RNA 1
RNA 2: GGGAAUGGAUCCACAUCUACGAAUUCGUACCAUAGAGAGGUUAUCCCUCCCGAGAUCGGAAGAGCACACGU
B3: target 1 C4G,U19G (mixed)
RNA 1: B1 RNA 1
RNA 2: GGGAAUGGAUCCACAUCUACGAAUUCGUACCAGAGAGAGGUUAUCCGGUCACCGAGAUCGGAAGAGCACACGU
B4: target 1 insC 3' of 12,insU 3' of 1 (mixed)
RNA 1: B1 RNA 1
RNA 2: B1 RNA 2 with C40G, G41C, G49C, C50U, U51C, C52A, A53U
B5: target 1 U8A,G13A (mixed)
RNA 1: B1 RNA 1
RNA 2: B3 RNA 2 with G33U, G39A, U44A, G48C
B6: target 1 insU 3' of 20,insC 3' of 17 (mixed)
RNA 1: B1 RNA 1
RNA 2: GGGAAUGGAUCCACAUCUACGAAUUCGUACCAUUAGCAGAGGUUAUCCGCUCACCGAGAUCGGAAGAGCACACGU
B7: target 1 insC 3' of 22,insG 3' of 2 (mixed)
RNA 1: B1 RNA 1
RNA 2: GGGAAUGGAUCCACAUCUACGAAUUCGUACCCAUAGAGAGGUUAUCCGCUCGACCGAGAUCGGAAGAGCACACGU
B8: target 1 insU 3' of 18,insA 3' of 7 (mixed)
RNA 1: B1 RNA 1
RNA 2: B1 RNA 2 with G35U, A36G, G37A, A38G, G39A, C40G, C47A, G48C
B9: target 1 A9U,C21A (mixed)
RNA 1: B1 RNA 1
RNA 2: B3 RNA 2 with C31A, G33U, A43U, G48C
B10: target 1 U11A,A18G (mixed)
RNA 1: B1 RNA 1
RNA 2: B3 RNA 2 with G33U, A34G, U41A, G48C
B11: target 1 insG 3' of 22,insC 3' of 3 (mixed)
RNA 1: B1 RNA 1
RNA 2: B7 RNA 2 with C31G, G52C
B12: target 1 A14G,C22A (mixed)
RNA 1: B1 RNA 1
RNA 2: B3 RNA 2 with C30A, G33U, A38G, G48C
B13: target 1 insG 3' of 8,insG 3' of 7 (mixed)
RNA 1: B1 RNA 1
RNA 2: B1 RNA 2 with C40G, G41U, U43A, A44U, U45G, C47G, G48C
B14: target 1 insC 3' of 11,insA 3' of 6 (mixed)
RNA 1: B1 RNA 1
RNA 2: B1 RNA 2 with C40G, G41U, U42C, G48A
B15: target 1 U3A,A16C (mixed)
RNA 1: B1 RNA 1
RNA 2: B3 RNA 2 with G33U, A36C, G48C, U49A

This series addresses T1, EsCas13d, nuclease-dead. The series can be described thus: crRNA (strand 1, pre-loaded); Mg2+; 40 mM Tris-HCl pH 7.5, 150 mM NaCl, 6 mM MgCl2, 1 mM DTT, 0.1% Tween-20, 0.2 mg/ml BSA; 25 C; 10 min per concentration, then washed. The note with it: tags: His6-TwinStrep-SUMO cleaved; N-terminal SNAP kept (SNAP-Surface 488); label: 3' end held by stalled T7 RNA polymerase.
By Kd is commonly meant the concentration at which binding is half-saturated. High values mean lower affinity, low ones higher affinity. As to B1, binding was put at a Kd of 14.6 ± 1.6 nM. Next, B2: 20.4 ± 1.2 nM; B3: 100 ± 50 nM. In turn, B4 had a Kd of 12 ± 1.1 nM. Molecule B5 came in with a Kd of 15 ± 0.7 nM. Turning to B6, the Kd was 44 ± 8 nM. The same measure for B7: 21.1 ± 3.2 nM; for B8: 23.6 ± 2.6 nM.

B9 displayed a Kd of 35.8 ± 2.3 nM. Compared with the last molecule, the Kd is about 1.5-fold higher. Next, B10: 80 ± 40 nM. The same measure for B11: 31.2 ± 3.4 nM; for B12: 40 ± 4 nM. In turn, B13 displayed a Kd of 8.24 ± 0.23 nM. This Kd lies about 4.9-fold lower than the previous one. For the molecule B14, the Kd came out at 47 ± 14 nM.

The molecule B15 showed a Kd of 76 ± 7 nM.

Source of the values: article PMC10786891, “Massively parallel profiling of RNA-targeting CRISPR-Cas13d”.
